These results are taken from the supplement of paper PMC10567573.

This series in a line: protein stability index of a GFP-peptide fusion (GPS, HEK-293T) (PSI 1-6); higher = more stable.
Where [1] appears, read: treatment: DMSO, c terminus: a fixed tail appended.
Where [2] appears, read: treatment: MLN4924 1 uM, 8 h, c terminus: a fixed tail appended.

± gives the standard deviation.
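Note: 24-mer peptide tiles fused after GFP, lentivirally expressed, FACS-sorted into six equal bins by GFP/DsRed ratio, decoded by Illumina sequencing, PSI is the read-weighted mean bin number.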

With CNGILTEKMEEEEQTCDPDSSLHW [ZNF396], the protein stability index came out at 5.13 ± 0.18 under setting [1] and 5.01 ± 0.28 under setting [2].

For the sequence CNTFVYSSSKGTIRLCDMRASALC [PPP2R2B], the protein stability index by setting is: under setting [1], 2.5 ± 0.53; under setting [2], 2.34 ± 0.51.

Regarding CPLTRSNGDLSRSLSPSPLGSSAA [FCHO1], the protein stability index was found to be 4.17 ± 0.22 under setting [1] and 4.17 ± 0.33 under setting [2].

Regarding CQGVSEAAHRLARRLYHLEGFQRC [PSD2], the protein stability index runs as follows: under setting [1], 2.41 ± 0.21; under setting [2], 2.54 ± 0.17.

Regarding CQLALQQKRETLSPLCLIPMVTSP [KCTD13], the protein stability index by setting is: under setting [1], 2.27 ± 0.16; under setting [2], 2.19 ± 0.17.

Turning to CRKFPRDMKAMSPENQEYFEKHRW [RHOBTB2], the protein stability index is, setting by setting: under setting [1], 3.22 ± 0.2; under setting [2], 3.18 ± 0.29.

In the case of CSSFMAPPVTDLGELRRRPGDMKT [CPOX], the protein stability index is 3.43 ± 0.3 under setting [1] and 3.31 ± 0.48 under setting [2].

On to CTDHELENHSMYCVQCKMPVCYQC [TRIM9], for which the protein stability index runs as follows: under setting [1], 4.23 ± 0.23; under setting [2], 4.33 ± 0.36.

Turning to CYEHFAELDIPQSVQQNGSIYIHV [CLPTM1], the protein stability index runs as follows: under setting [1], 2.75 ± 0.48; under setting [2], 2.98 ± 0.45.

As for DAAAILLDEQNKRPCRKFLLTGQC [ZMAT5], the protein stability index runs as follows: under setting [1], 2.98 ± 0.45; under setting [2], 3 ± 0.59.

As for DAGSPYLIGLISDRLRRNWPPSFL [SPNS1], the protein stability index amounted to 2.22 ± 0.28 under setting [1] and 2.08 ± 0.25 under setting [2].

For DAINEEIRMIQEEKESTELRAEEI [PPFIA4], the protein stability index is 5.71 ± 0.15 under setting [1] and 5.51 ± 0.25 under setting [2].

DALQRYGTSHGAPPARGPRMSYGG [RBMY1A1]: the protein stability index came out at 3.82 ± 0.23 under setting [1] and 3.82 ± 0.21 under setting [2].

In the case of DAQEIMQSLRDLGVKISEQQAEKI [SLC25A25], the protein stability index reads like this: under setting [1], 3.81 ± 0.21; under setting [2], 3.79 ± 0.47.

Turning to DASVQPGPFRTLLQFLYTGQLDEK [RHOBTB1], the protein stability index came out at 2.51 ± 0.33 under setting [1] and 2.72 ± 0.3 under setting [2].

As for DDDAQILPSPVQACSEDSLFLRCS [DRICH1], the protein stability index runs as follows: under setting [1], 4.17 ± 0.16; under setting [2], 4.02 ± 0.37.

For DDDKYKITLKYPHYFPVMKKCCIP [NLN], the protein stability index runs as follows: under setting [1], 2.9 ± 0.23; under setting [2], 2.49 ± 0.47.

For the sequence DDHGDECSYTDLLPQDEGGGGYSS [KCNA4], the protein stability index is, setting by setting: under setting [1], 5.52 ± 0.22; under setting [2], 5.62 ± 0.082.

As for DDHLQQPLQNQKILKRTGQRYEHG [ZNF649], the protein stability index is, setting by setting: under setting [1], 4.84 ± 0.085; under setting [2], 4.97 ± 0.23.

In the case of DDSPRSALAAATAAAAAAASAAAA [SPAG8], the protein stability index was 4.79 ± 0.39 under setting [1] and 4.86 ± 0.42 under setting [2].

For DDYTSAIEVQPNFEVPYYNRGLIL [TTC32], the protein stability index was 2.4 ± 0.45 under setting [1] and 2.42 ± 0.38 under setting [2].

As for DEDLDLIPPKSVNPTCMCCQATSS [FAM219A], the protein stability index is, setting by setting: under setting [1], 4.63 ± 0.33; under setting [2], 4.53 ± 0.63.

Regarding DEGRLVLEFSLLSYAFGKFPTVVW [SOAT1], the protein stability index is, setting by setting: under setting [1], 2.33 ± 0.68; under setting [2], 3.07 ± 0.14.

Consider DEKQQEANETLAEMEEELRYAPLS [VTI1B], for which the protein stability index runs as follows: under setting [1], 5.55 ± 0.15; under setting [2], 5.55 ± 0.2.

In the case of DESGYVSGYKHAGTYDQKVQGGK [TPPP], the protein stability index is 5.24 ± 0.15 (treatment: DMSO, c terminus: native) and 5.4 ± 0.24 (treatment: MLN4924 1 uM, 8 h, c terminus: native).

For the sequence DEVARRWGKRKNKPKMNYEKLSRG [ETS2], the protein stability index was found to be 4.11 ± 0.35 under setting [1] and 4.31 ± 0.52 under setting [2].

For DEWACELRLFGRVLERAACLRRCK [P3H4], the protein stability index is, setting by setting: under setting [1], 2.74 ± 0.49; under setting [2], 2.8 ± 0.6.

Consider DFPDILEQQRKLETYLQNHFAEEE [TENT5C], for which the protein stability index reads like this: under setting [1], 4.45 ± 0.27; under setting [2], 4.56 ± 0.22.

As for DGEEIPVQKNILAAASPYIRTKLN [GAN], the protein stability index was found to be 4.13 ± 0.33 under setting [1] and 4.32 ± 0.28 under setting [2].

Consider DGTFSPVTLALFFVLYFLLACWTY [CLCN6], for which the protein stability index stood at 3.07 ± 0.34 under setting [1] and 2.9 ± 0.21 under setting [2].

DHIIEKKRTIIPTLVEAIKEQDGR [DFFB] returned a protein stability index under setting [1] of 4.63 ± 0.24 and a protein stability index under setting [2] of 4.68 ± 0.2.

DLDETLIHSHHDGVLRPTVRPGTP [CTDNEP1]: the protein stability index is 4.53 ± 0.086 under setting [1] and 4.67 ± 0.21 under setting [2].

DLEPGVLMSAQTITSETTSTTTTT [EPB41L3]: the protein stability index worked out at 5.19 ± 0.32 under setting [1] and 5.17 ± 0.11 under setting [2].

Regarding DLNNCKNNLEPILEGYISNLRKQL [KRT71], the protein stability index by setting is: under setting [1], 2.58 ± 0.21; under setting [2], 2.76 ± 0.5.

Take DLRTVDPETQARLEALLEAAGIGK [ANKRD17]: the protein stability index is, setting by setting: under setting [1], 3.84 ± 0.36; under setting [2], 3.94 ± 0.16.

For DLSKPPCRKAKEIRKERKRLKLMQ [ATE1], the protein stability index runs as follows: under setting [1], 3.55 ± 0.13; under setting [2], 3.64 ± 0.35.

For the sequence DMLREMFSDSRSNNDDDEDEDDED [TAF7L], the protein stability index runs as follows: under setting [1], 5.36 ± 0.36; under setting [2], 5.63 ± 0.17.

In the case of DNAEAAFSDDEEDLNSKGKKREFR [INTS3], the protein stability index by setting is: under setting [1], 5.51 ± 0.16; under setting [2], 5.47 ± 0.2.

For the sequence DNWIPLLWCANILGYAVSTFAMVK [DHCR7], the protein stability index reads like this: under setting [1], 3.04 ± 0.44; under setting [2], 3.17 ± 0.12.

As to DPLFGMCEKFLQEVDFFQRYFIAD [INTS4], the protein stability index is 2.6 ± 0.36 under setting [1] and 2.21 ± 0.35 under setting [2].

Regarding DPLPAAAVGAAAEAEADEEADPPA [SNX8], the protein stability index reads like this: under setting [1], 5.59 ± 0.3; under setting [2], 5.71 ± 0.14.

Regarding DPTWIESPKTNGHIENGPFSLEQQ [SRPK2], the protein stability index reads like this: under setting [1], 4.78 ± 0.11; under setting [2], 4.75 ± 0.22.

Turning to DQIRQGIQLKSVADGQESTPPTPA [WASL], the protein stability index reads like this: under setting [1], 5.33 ± 0.16; under setting [2], 5.51 ± 0.15.

For the sequence DQNASTHTPQSSVKTSVPSSKSSG [CLINT1], the protein stability index is, setting by setting: under setting [1], 5.02 ± 0.24; under setting [2], 5.2 ± 0.14.

Regarding DQVPSMQDGSESFFFRHGHRGLLT [SPAG8], the protein stability index runs as follows: under setting [1], 3.39 ± 0.28; under setting [2], 3.54 ± 0.35.

With DRKSVKFVETRLRDLPDTPRRFTF [TRIM39], the protein stability index runs as follows: under setting [1], 2.98 ± 0.12; under setting [2], 3.08 ± 0.29.

In turn, DSDENSKPSVDTEGPALVEIDRSV [MIA2] returned a protein stability index under setting [1] of 5.16 ± 0.78 and a protein stability index under setting [2] of 5.29 ± 0.56.

With DSFVCQCSEGFLINEDLKTCSRVD [MATN2], the protein stability index runs as follows: under setting [1], 3.57 ± 0.38; under setting [2], 3.9 ± 0.45.

DSGGSDVDLDPTDGKLFPSDGFRD [ELF3] registered a protein stability index under setting [1] of 5.38 ± 0.16 and a protein stability index under setting [2] of 5.42 ± 0.15.

With DSLDEARSSGSEGTPADTGDLSPG [PWWP2B], the protein stability index was found to be 5.6 ± 0.18 under setting [1] and 5.52 ± 0.15 under setting [2].

As for DSLLLHSSGQCRRRKRTYWNDSCG [WEE1], the protein stability index was determined as 2.75 ± 0.29 under setting [1] and 2.82 ± 0.47 under setting [2].

In the case of DSSEKELEPEAAEEALENGPKESL [ACBD3], the protein stability index by setting is: under setting [1], 5.62 ± 0.24; under setting [2], 5.55 ± 0.22.

For the sequence DSVAEVAAKARDTGILIFAIGVGQ [MATN2], the protein stability index is, setting by setting: under setting [1], 2.73 ± 0.9; under setting [2], 2.64 ± 0.97.

Turning to DSYSSSRSDLYSSGRDRVGRQERG [RBMX], the protein stability index by setting is: under setting [1], 4.72 ± 0.059; under setting [2], 4.84 ± 0.22.

As to DSYSSTQHVPEELDLSSSSQMSPL [ATF6], the protein stability index is, setting by setting: under setting [1], 5.29 ± 0.12; under setting [2], 5.28 ± 0.073.

In the case of DTGVAFELRDSSAYHVPNRTLASG [DNAAF3], the protein stability index was 3.87 ± 0.18 under setting [1] and 3.94 ± 0.054 under setting [2].

For DVDLTIHGRHIDCPATWGPSVEQA [FOXJ1], the protein stability index under setting [1] stood at 3.95 ± 0.16 and the protein stability index under setting [2] worked out at 3.94 ± 0.3.

Turning to DVFERDWYSPYAKTLQPTKQPNCS [PLD5], the protein stability index runs as follows: under setting [1], 3.49 ± 0.54; under setting [2], 3.24 ± 0.15.

For the sequence DVRLLPRRLPLAFRDATSAPLRKL [DYRK1B], the protein stability index by setting is: under setting [1], 3.17 ± 0.27; under setting [2], 3.02 ± 0.15.

In the case of DVVFEIQGTTVPAHRAILVARCEV [RHOBTB3], the protein stability index runs as follows: under setting [1], 2.69 ± 0.85; under setting [2], 2.51 ± 0.44.

On to DYMKEVGVGFATRKVAGMAKPNMI [FABP4], for which the protein stability index is, setting by setting: under setting [1], 3.13 ± 0.48; under setting [2], 3.06 ± 0.64.

Consider EADINGLRRVLDELTLSKTDLEMQ [KRT13], for which the protein stability index under setting [1] came out at 4.32 ± 0.079 and the protein stability index under setting [2] came out at 4.26 ± 0.3.

Take EAEALAGTGLVLDEQLNEFHCLWD [HDAC6]: the protein stability index under setting [1] was 4.29 ± 0.061 and the protein stability index under setting [2] is 4.15 ± 0.45.

As to EAECEKSSATTYFWYREALDISDS [SLC6A17], the protein stability index is, setting by setting: under setting [1], 3.94 ± 0.36; under setting [2], 3.83 ± 0.29.

In the case of EAEDQEEKEDAEKENIEKDEDDVD [SRPK2], the protein stability index is 5.66 ± 0.32 under setting [1] and 5.79 ± 0.2 under setting [2].

In the case of EAMYHCCWNTSYCSIKCQQEHWHA [ZMYND11], the protein stability index was found to be 2.3 ± 0.45 under setting [1] and 2.65 ± 0.43 under setting [2].

EATKEVHTQAENAEFMRNFQKGQV [HMOX1]: the protein stability index worked out at 5.04 ± 0.17 under setting [1] and 5.21 ± 0.23 under setting [2].

ECFETLRGDERILSILRHQNLLKE [CHGA]: the protein stability index runs as follows: under setting [1], 2.9 ± 0.24; under setting [2], 2.85 ± 0.34.

In the case of EDERWTNNFREYNLHRVAAHELGH [MMP1], the protein stability index by setting is: under setting [1], 3.73 ± 0.19; under setting [2], 3.62 ± 0.2.

Take EDFSLPAYMDRRDHPLPEVAHVKH [COX4I1]: the protein stability index is 4.32 ± 0.28 under setting [1] and 4.59 ± 0.18 under setting [2].

Take EDSIPLRGLSQNLFSNSDHQRDGT [SASS6]: the protein stability index came out at 4.94 ± 0.15 under setting [1] and 4.99 ± 0.2 under setting [2].

In turn, EDSKELRALRKMVSNMSGPSGEEE [CBY2] came in with a protein stability index under setting [1] of 5.15 ± 0.21 and a protein stability index under setting [2] of 5.25 ± 0.13.
